Reference: article PMC9106695, “The use of high-affinity polyhistidine binders as masking probes for the selection of an NDM-1 specific aptamer”

Columns and labels:
[1] = system: hexa-HIS peptide (synthetic); assay: MST; settings: 20 mM Tris-HCl pH 7.4, 140 mM NaCl, 5 mM MgCl2, 1 mM CaCl2, 1 mM KCl; FLAA/MST with 0.1% BSA and 0.05% Tween 20 (FLAA at RT); SPR without BSA, 0.005% Tween 20 …
[2] = molecular target: T1, HIS-NDM-1 (New Delhi metallo-beta-lactamase 1) (E. coli, UniProt C7C422 29-270); assay: SPR; aptamer immobilized; 20 mM Tris-HCl pH 7.4, 140 mM NaCl, 5 mM MgCl2, 1 mM CaCl2, 1 mM KCl; FLAA/MST with 0.1% BSA and 0.05% Tween 20 (FLAA at RT); SPR without BSA, 0.005% Tween 20; settings: protein: commercial, tags: N-terminal His6
T1 sequence (C7C422 29-270): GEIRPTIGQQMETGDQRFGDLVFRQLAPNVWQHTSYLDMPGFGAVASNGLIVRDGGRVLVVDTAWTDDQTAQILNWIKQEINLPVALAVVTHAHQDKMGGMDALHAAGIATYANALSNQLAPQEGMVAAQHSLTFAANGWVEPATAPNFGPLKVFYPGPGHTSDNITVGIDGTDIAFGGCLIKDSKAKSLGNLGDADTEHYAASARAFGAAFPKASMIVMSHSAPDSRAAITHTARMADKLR

[3] = molecular target: T2, mPD1-HIS (mouse Programmed cell Death protein 1) (mouse, UniProt Q02242 25-169); assay: as above; settings: protein: commercial, tags: C-terminal HIS
T2 sequence (Q02242 25-169): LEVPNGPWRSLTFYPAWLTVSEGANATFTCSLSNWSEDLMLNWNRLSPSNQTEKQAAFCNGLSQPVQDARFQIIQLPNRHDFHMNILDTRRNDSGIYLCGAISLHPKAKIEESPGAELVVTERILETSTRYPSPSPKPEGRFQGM

[4] = molecular target: CFHR1-HIS (Complement factor H-related protein 1) (UniProt Q03591 19-330); assay: as above; settings: protein: commercial, tags: C-terminal HIS
Sequence of CFHR1-HIS (Complement factor H-related protein 1) (Q03591 19-330): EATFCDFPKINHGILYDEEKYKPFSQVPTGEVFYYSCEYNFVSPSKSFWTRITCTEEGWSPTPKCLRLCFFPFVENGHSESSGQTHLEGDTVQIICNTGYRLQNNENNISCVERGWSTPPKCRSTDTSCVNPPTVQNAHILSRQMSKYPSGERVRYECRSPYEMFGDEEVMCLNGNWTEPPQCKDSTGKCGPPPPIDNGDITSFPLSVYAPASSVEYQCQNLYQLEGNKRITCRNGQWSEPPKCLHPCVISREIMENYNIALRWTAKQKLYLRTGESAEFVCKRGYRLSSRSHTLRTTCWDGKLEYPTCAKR

[5] = molecular target: T2, mPD1-HIS (mouse Programmed cell Death …); assay: SPR; protein immobilized, 1 uM aptamer; 20 mM Tris-HCl pH 7.4, 140 mM NaCl, 5 mM MgCl2, 1 mM CaCl2, 1 mM KCl; FLAA/MST with 0.1% BSA and 0.05% Tween 20 (FLAA at RT); SPR without BSA, 0.005% Tween 20; settings: protein: commercial; tags: C-terminal HIS
[6] = molecular target: T1, HIS-NDM-1 (New Delhi …); assay: FLAA; signal exceeds initial library; not seen in SPR; 20 mM Tris-HCl pH 7.4, 140 mM NaCl, 5 mM MgCl2, 1 mM CaCl2, 1 mM KCl; FLAA/MST with 0.1% BSA and 0.05% Tween 20 (FLAA at RT); SPR without BSA, 0.005% Tween 20; settings: protein: commercial; tags: N-terminal His6
[7] = molecular target: T1, HIS-NDM-1 (New Delhi …); assay: SPR; aptamer immobilized; text gives upper limit 4.43E-09; 20 mM Tris-HCl pH 7.4, 140 mM NaCl, 5 mM MgCl2, 1 mM CaCl2, 1 mM KCl; FLAA/MST with 0.1% BSA and 0.05% Tween 20 (FLAA at RT); SPR without BSA, 0.005% Tween 20; settings: protein: commercial; tags: N-terminal His6; label: 5'-BiotinTEG (SPR kinetics); 5'-Cy5 (MST); none (screens)
[8] = molecular target: T1, HIS-NDM-1 (New Delhi …); assay: MST; 20 mM Tris-HCl pH 7.4, 140 mM NaCl, 5 mM MgCl2, 1 mM CaCl2, 1 mM KCl; FLAA/MST with 0.1% BSA and 0.05% Tween 20 (FLAA at RT); SPR without BSA, 0.005% Tween 20; settings: protein: commercial, tags: N-terminal His6
[9] = molecular target: T1, HIS-NDM-1 (New Delhi …); assay: FLAA; signal exceeds initial library; 20 mM Tris-HCl pH 7.4, 140 mM NaCl, 5 mM MgCl2, 1 mM CaCl2, 1 mM KCl; FLAA/MST with 0.1% BSA and 0.05% Tween 20 (FLAA at RT); SPR without BSA, 0.005% Tween 20; settings: protein: commercial; tags: N-terminal His6
[10] = molecular target: OXA-23 beta-lactamase (A. baumannii) (Acinetobacter baumannii, UniProt Q9L4P2 18-273); assay: MST; 20 mM Tris pH 7.4, 140 mM NaCl, 5 mM MgCl2, 1 mM CaCl2, 1 mM KCl, 0.1% BSA, 0.05% Tween 20; settings: tags: N-His6; label: 5'-Cy5
Sequence of OXA-23 beta-lactamase (A. baumannii) (Q9L4P2 18-273): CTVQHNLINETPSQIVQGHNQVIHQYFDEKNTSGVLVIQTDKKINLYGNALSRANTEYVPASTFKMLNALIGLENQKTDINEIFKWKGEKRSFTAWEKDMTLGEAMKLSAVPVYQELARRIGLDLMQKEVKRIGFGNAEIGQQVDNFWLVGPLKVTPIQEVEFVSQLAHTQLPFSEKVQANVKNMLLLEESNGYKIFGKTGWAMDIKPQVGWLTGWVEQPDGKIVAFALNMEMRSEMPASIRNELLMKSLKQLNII

[11] = label: 5'-BiotinTEG (SPR kinetics), 5'-Cy5 (MST), none (screens)
[12] = label: 5'-BiotinTEG (SPR), 5'-Cy5 (MST), none (FLAA)

In the case of “GTATCTGGTGGTCTATGGCGTCATAGGTACCATGGGGGACTGCTCGGGATTGCGGATTCATGGCATAGACGACGAAGAAC [NDM1-H14-01]”, the Kd [1] is reported as 28.1 nM.

B1: NDM1-H14-01-FR (ssDNA)
DNA: CGTCATAGGTACCATGGGGGACTGCTCGGGATTGCGGATTCATG
B1 was tested, and the Kd ([2]; label: 5'-BiotinTEG) was 5.91 nM, the Kd ([3]; label: 5'-BiotinTEG) was 0.125 nM and the Kd ([4]; label: 5'-BiotinTEG) was 0.0286 nM.

B2: NDM1-H14-25 (ssDNA)
DNA: GTATCTGGTGGTCTATGGCAAACGTTCTGAGTTAGGCTTATTTTTCTCTCTTCCCTTCGCCGCATAGACGACGAAGAAC
B2: binds [5]; binds [6].

B3: NDM1-H14-01 (ssDNA)
DNA: GTATCTGGTGGTCTATGGCGTCATAGGTACCATGGGGGACTGCTCGGGATTGCGGATTCATGGCATAGACGACGAAGAAC
B3 was tested, and the Kd [7] was 4.34 nM, the Kd [3, 11] was 0.0986 nM and the Kd [4, 11] was 0.0449 nM.

B4: Con1 (ssDNA)
DNA: GGGAATTCGAGCTCGGTACCGGCTGCTTTGCTGCAGATTTGTGGGTGGGTGGGTGGTGATCTGCAGGCATGCAAGCTTGG
B4: no binding ([8]; label: 5'-Cy5).

B5: NDM1-H14-02 (ssDNA)
DNA: GTATCTGGTGGTCTATGGCCAGTATGGCTGTTCAAGTCTTCAGAGGGTCTGCTCGGGATTGCGCATAGACGACGAAGAAC
B5: binds [9].

B6: NDM1-H14.2_43 (ssDNA)
DNA: GTATCTGGTGGTCTATGGCCGCTATCCGCAATCTGTCTCTTTTCTTTATTCTTTTACTCACCGCATAGACGACGAAGAAC
With B6 the Kd [8, 12] was 2820 nM, the Kd [2, 12] was 745 nM and the binding result [10] was “no binding”.
